Results: patent publication US20240083986A1 (published 2024)

Experiments:
[1] = biological target: T1, mutant Bet v 1-MMH (Betula verrucosa (European white birch, …)); test: SPR Biacore, 25C and 37C
T1 construct: also called CHO produced recombinant Bet v 1 containing a S85A mutation with a C-terminal myc-myc hexahistidine tag
T1 chain: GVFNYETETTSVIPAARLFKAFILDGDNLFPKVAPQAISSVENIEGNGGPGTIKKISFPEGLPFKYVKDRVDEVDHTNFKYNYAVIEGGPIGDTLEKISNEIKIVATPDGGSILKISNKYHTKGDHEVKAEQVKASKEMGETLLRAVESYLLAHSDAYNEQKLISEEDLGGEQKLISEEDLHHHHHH

[2] = biological target: T2, Apple (Mal d 1, MyBiosource, Cat #MBS1224919) (Apple, UniProt P43211 2-159, limits assumed); test: SPR Biacore, 25C;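 further: binding of related allergens to purified monoclonal anti-Bet v 1 antibodies by surface plasmon resonance in HEPES-buffered saline pH 7.4, kinetics fitted to a 1:1 model with mass transport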
T2 construct: Bought reagent
T2 sequence (looked up): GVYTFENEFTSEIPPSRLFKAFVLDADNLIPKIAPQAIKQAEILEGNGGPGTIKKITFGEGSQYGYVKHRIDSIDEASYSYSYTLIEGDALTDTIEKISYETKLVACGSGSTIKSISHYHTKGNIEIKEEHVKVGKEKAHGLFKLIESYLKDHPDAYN

[3] = biological target: T3, European Hornbeam (Car b 1 isoform 2, MyBiosource, Cat #MBS1043940) (European Hornbeam, UniProt P38950 2-160, limits assumed); test: SPR Biacore, 25C;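 further: binding of related allergens to purified monoclonal anti-Bet v 1 antibodies by surface plasmon resonance in HEPES-buffered saline pH 7.4, kinetics fitted to a 1:1 model with mass transport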
T3 construct: Bought reagent
T3 sequence (looked up): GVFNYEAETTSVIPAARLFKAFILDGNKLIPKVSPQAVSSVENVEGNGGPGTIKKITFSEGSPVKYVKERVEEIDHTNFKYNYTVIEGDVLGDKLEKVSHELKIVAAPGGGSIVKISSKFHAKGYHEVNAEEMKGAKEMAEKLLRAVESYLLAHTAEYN

[4] = biological target: T4, European Hornbeam (Car b 1 isoform 1A & 1B, MyBiosource, Cat #MBS1200018) (European Hornbeam, UniProt P38949 2-160); test: SPR Biacore, 25C;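 further: binding of related allergens to purified monoclonal anti-Bet v 1 antibodies by surface plasmon resonance in HEPES-buffered saline pH 7.4, kinetics fitted to a 1:1 model with mass transport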
T4 construct: Bought reagent
T4 sequence (looked up): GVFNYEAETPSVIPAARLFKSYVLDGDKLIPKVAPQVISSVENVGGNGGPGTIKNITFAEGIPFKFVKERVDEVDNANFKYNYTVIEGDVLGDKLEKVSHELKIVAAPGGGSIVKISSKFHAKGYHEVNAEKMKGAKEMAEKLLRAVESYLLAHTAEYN

[5] = biological target: T5, Celery (Api g 1, MyBiosource, Cat #MBS1171376) (Celery, UniProt P49372 1-154, limits assumed); test: SPR Biacore, 25C;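 further: binding of related allergens to purified monoclonal anti-Bet v 1 antibodies by surface plasmon resonance in HEPES-buffered saline pH 7.4, kinetics fitted to a 1:1 model with mass transport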
T5 construct: Bought reagent
T5 sequence (looked up): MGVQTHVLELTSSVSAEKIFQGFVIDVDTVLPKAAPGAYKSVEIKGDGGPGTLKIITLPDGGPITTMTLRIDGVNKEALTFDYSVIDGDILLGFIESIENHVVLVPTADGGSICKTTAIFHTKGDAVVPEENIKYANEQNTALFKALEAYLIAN

[6] = biological target: T6, Alder (Aln g 1, MyBiosource, Cat #MBS1041484) (Alder, UniProt P38948 2-160, limits assumed); test: SPR Biacore, 25C
T6 construct: Bought reagent
T6 sequence (looked up): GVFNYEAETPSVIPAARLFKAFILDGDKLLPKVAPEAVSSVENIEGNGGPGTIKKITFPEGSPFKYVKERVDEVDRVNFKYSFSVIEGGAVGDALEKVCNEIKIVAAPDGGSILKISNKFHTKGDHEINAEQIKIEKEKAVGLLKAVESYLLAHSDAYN

[7] = biological target: T7, natural Bet v 1 (Indoor, Cat #NA-BV1-1) (Betula verrucosa (European white birch, …, UniProt P15494 2-160)); test: SPR Biacore, mAb captured on anti-hFc, 25C;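 further: rate constants from sensorgrams fitted to a 1:1 model with mass transport limitation, KD and t½ derived from kinetic constants, run in HBS-ET buffer at pH 7.4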
T7 construct: Bought natural protein purified from birch pollen; also called nBet v 1
T7 sequence: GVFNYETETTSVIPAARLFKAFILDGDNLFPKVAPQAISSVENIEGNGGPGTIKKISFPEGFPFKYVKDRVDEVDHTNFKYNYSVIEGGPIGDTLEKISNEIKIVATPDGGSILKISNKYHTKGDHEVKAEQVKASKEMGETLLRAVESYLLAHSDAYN

[8] = biological target: T7, natural Bet v 1 (Indoor, Cat #NA-BV1-1); test: SPR Biacore, mAb captured on anti-hFc, 37C;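 further: purified anti-Bet v 1 monoclonal antibodies, HBS-ET running buffer pH 7.4, rate constants from 1:1 model fit with mass transport limitation, KD and t½ calculated from kinetic constants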

B1: H4H16967P (antibody, human IgG4, V domains shown)
VH: QVQLVESGGGVVQPGRSLRLSCAASGFTFSSYGMHWFRQAPGKGLEWVGVIWSDGSDKKYADSVKGRFTISRDNSKNTLYLLMNSLRDDDTAVYHCAREGGFLYSSSSHFDYWGQGTLVTVSS
VL: AIQMTQSPSSLSASVGDRVTITCRTSQGIRNDLGWYQQKPGKAPKLLIFAASSLQSGVPSRFSGSGSGTDFTLTISSLQPEDFAIYYCLQDYKYPFTFGGGTKVEIK
B1: no binding (tested: 100 nM) [1]; no binding (tested: 100 nM) [2]; no binding (tested: 100 nM) [3]. B1: no binding (tested: 100 nM) [4]; no binding (tested: 100 nM) [5]; no binding (tested: 100 nM) [6]. The “100 nM natural Bet v 1 Bound (RU)” value [7] was 27 RU, the Kd [7] was 3.98 nM and the koff [7] was 0.000149 s⁻¹. The kon [7] was 37600 M⁻¹ s⁻¹, the t½ [7] was 77 min and the “100 nM natural Bet v 1 Bound (RU)” value [8] was 45 RU. The Kd [8] was 14.3 nM, the koff [8] was 0.000719 s⁻¹ and the kon [8] was 50400 M⁻¹ s⁻¹. It also gave a t½ [8] of 16 min.
